First the molecules themselves.
B1: GST-HA-ATG16L1-231–607 T300, purified from human cells [human] / TMEM59 263–281 peptide, wild type (19-amino acid peptide that includes the ATG16L1-binding motif) [modified: Immobilised through the N-terminus by a long spacer (Tds). Some … (parent complex)
chain 1: PLPVEQDDDIEVIVDETSDHTEETSPVRAISRAATKRLSQPAGGLLDSITNIFGRRSVSSFPVPQDNVDTHPGSGKEVRVPATALCVFDAHDGEVNAVQFSPGSRLLATGGMDRRVKLWEVFGEKCEFKGSLSGSNAGITSIEFDSAGSYLLAASNDFASRIWTVDDYRLRHTLTGHSGKVLSAKFLLDNARIVSGSHDRTLKLWDLRSKVCIKTVFAGSSCNDIVCTEQCVMSGHFDKKIRFWDIRSESIVREMELLGKITALDLNPERTELLSCSRDDLLKVIDLRTNAIKQTFSAPGFKCGSDWTRVVFSPDGSYVAAGSAEGSLYIWSVLTGKVEKVLSKQHSSSINAVAWSPSGSHVVSVDKGCKAVLWAQY
chain 2: TAVEQYVPSEKLSIYGDLE
B2: GST-HA-ATG16L1-320–607 (recombinant WD40 domain fused to GST and the HA tag) [human] / TMEM59 263–281 peptide, wild type (19-amino acid peptide that includes the ATG16L1-binding motif) [modified: Immobilised through the N-terminus by a … (parent complex)
chain 1: AHDGEVNAVQFSPGSRLLATGGMDRRVKLWEVFGEKCEFKGSLSGSNAGITSIEFDSAGSYLLAASNDFASRIWTVDDYRLRHTLTGHSGKVLSAKFLLDNARIVSGSHDRTLKLWDLRSKVCIKTVFAGSSCNDIVCTEQCVMSGHFDKKIRFWDIRSESIVREMELLGKITALDLNPERTELLSCSRDDLLKVIDLRTNAIKQTFSAPGFKCGSDWTRVVFSPDGSYVAAGSAEGSLYIWSVLTGKVEKVLSKQHSSSINAVAWSPSGSHVVSVDKGCKAVLWAQY
chain 2: TAVEQYVPSEKLSIYGDLE

The values that follow come from paper PMC4899871 (2016).

Variants of B1 are the subject of the first assay. Briefly: peptide microarray; probe purified from human cells; mean ± s.d., n=9 replicas; parent: 100; read off a plot.
Consider chain 2 G16A, for which the percent of parent is ~160 % of WT peptide (OD635, normalized values).
On to chain 2 E10A, for which the percent of parent is ~130 % of WT peptide (OD635, normalized values).
Consider chain 2 V7A, for which the percent of parent is ~140 % of WT peptide (OD635, normalized values).
As for chain 2 Y15A, the percent of parent was ~10 % of WT peptide (OD635, normalized values).
chain 2 L18A: the percent of parent was ~19 % of WT peptide (OD635, normalized values).
In the case of chain 2 Y6A, chain 2 E10A, chain 2 Y15A, chain 2 L18A, the percent of parent was ~3 % of WT peptide (OD635, normalized values).
For chain 2 Y6A, the percent of parent was ~45 % of WT peptide (OD635, normalized values).
Same read-out and setting: as for chain 2 K11A, the figure is ~96 % of WT peptide (OD635, normalized values).

The variants in a further assay derive from B1. In words: peptide microarray; probes purified from human cells; mean ± s.d., n=54; values normalised to the A300 ligand (= 100); parent: 160; read off a plot.
As to chain 1 T70A, the response is ~100 OD635, normalized values (% of the A300 ligand signal).

Variants of B1 are the subject of another assay. In words: peptide microarray; probe purified from human cells; mean ± s.d., n=9 replicas; parent: 9.3e+03; read off a plot.
With chain 2 Y6A, chain 2 E10A, chain 2 Y15A, chain 2 L18A, the response is ~400 a.u. (OD635).

The variants in the next assay derive from B2. Briefly: peptide microarray; probe expressed in bacteria; mean ± s.d., n=9 replicas; parent: 100; read off a plot.
As for chain 2 Y6A, chain 2 E10A, chain 2 Y15A, chain 2 L18A, the percent of parent was ~2.5 % of WT peptide (OD635, normalized values).
